Reference: the supplement of paper PMC10567573

B1: KCNAB2 (parent)
chain: IPPYSRASLKGYQWLKDKILSEEG

Variants of: B1
Assay: protein stability index of a GFP-peptide fusion (GPS, HEK-293T) (PSI 1-6); higher = more stable
Settings: c terminus: a fixed tail appended
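Note: lentivirally expressed fusions sorted by FACS into six bins by GFP to DsRed ratio, PSI derived from sequencing read proportions per bin multiplied by bin number.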

| Variant | protein stability index |
| --- | --- |
| IPPYSRASLKGYQWLDDKILSEEG [K16D] | 3.77 |
| IPPYSRASLKGYQWLMDKILSEEG [K16M] | 1.71 |
| IPPYSRASLKGYQWLIDKILSEEG [K16I] | 2.49 |
| IPPYSRASLKGYQWLLDKILSEEG [K16L] | 1.02 |
| IPPYSRASLKGYQWLNDKILSEEG [K16N] | 3.29 |
| IPPYSRASLKGYQWLCDKILSEEG [K16C] | 3.16 |
| IPPYSRASLKGYQWLTDKILSEEG [K16T] | 2.74 |
| IPPYSRASLKGYQWLYDKILSEEG [K16Y] | 1.84 |
| IPPYSRASLKGYQWLADKILSEEG [K16A] | 1.82 |
| IPPYSRASLKGYQWLGDKILSEEG [K16G] | 3.26 |
| IPPYSRASLKGYQWLSDKILSEEG [K16S] | 2.38 |
| IPPYSRASLKGYQWLQDKILSEEG [K16Q] | 2.31 |
| IPPYSRASLKGYQWLPDKILSEEG [K16P] | 3.39 |
| IPPYSRASLKGYQWLWDKILSEEG [K16W] | 2.29 |
| IPPYSRASLKGYQWLRDKILSEEG [K16R] | 3.2 |
| IPPYSRASLKGYQWLEDKILSEEG [K16E] | 2.19 |
| IPPYSRASLKGYQWLVDKILSEEG [K16V] | 2.08 |
| IPPYSRASLKGYQWLHDKILSEEG [K16H] | 1.53 |
| IPPYSRASLKGYQLLKDKILSEEG [W14L] | 3.57 |
| IPPYSRASLKGYQNLKDKILSEEG [W14N] | 3.78 |
| IPPYSRASLKGYQKLKDKILSEEG [W14K] | 3.65 |
| IPPYSRASLKGYQSLKDKILSEEG [W14S] | 2.95 |
| IPPYSRASLKGYQRLKDKILSEEG [W14R] | 3.73 |
| IPPYSRASLKGYQVLKDKILSEEG [W14V] | 3.6 |

| Variant | protein stability index |
| --- | --- |
| IPPYSRASLKGYQQLKDKILSEEG [W14Q] | 3.04 |
| IPPYSRASLKGYQDLKDKILSEEG [W14D] | 3.73 |
| IPPYSRASLKGYQILKDKILSEEG [W14I] | 3.45 |
| IPPYSRASLKGYQELKDKILSEEG [W14E] | 3.59 |
| IPPYSRASLKGYQPLKDKILSEEG [W14P] | 3.97 |
| IPPYSRASLKGYQGLKDKILSEEG [W14G] | 4.07 |
| IPPYSRASLKGYQFLKDKILSEEG [W14F] | 4.47 |
| IPPYSRASLKGYQYLKDKILSEEG [W14Y] | 3.32 |
| IPPYSRASLKGYQHLKDKILSEEG [W14H] | 3.57 |
| IPPYSRASLKGYQTLKDKILSEEG [W14T] | 3.3 |
| IPPYSRASLKGYQMLKDKILSEEG [W14M] | 3.66 |
| IPPYSRASLKGYQALKDKILSEEG [W14A] | 3.76 |
| IPPYSRASLKGYAWLKDKILSEEG [Q13A] | 1.82 |
| IPPYSRASLKGYEWLKDKILSEEG [Q13E] | 2.34 |
| IPPYSRASLKGYDWLKDKILSEEG [Q13D] | 3.63 |
| IPPYSRASLKGYGWLKDKILSEEG [Q13G] | 1.93 |
| IPPYSRASLKGYNWLKDKILSEEG [Q13N] | 2.32 |
| IPPYSRASLKGYSWLKDKILSEEG [Q13S] | 2.95 |
| IPPYSRASLKGYLWLKDKILSEEG [Q13L] | 1.16 |
| IPPYSRASLKGYVWLKDKILSEEG [Q13V] | 2.08 |
| IPPYSRASLKGYFWLKDKILSEEG [Q13F] | 2.6 |
| IPPYSRASLKGYCWLKDKILSEEG [Q13C] | 1.84 |
| IPPYSRASLKGYYWLKDKILSEEG [Q13Y] | 1.53 |
| IPPYSRASLKGYPWLKDKILSEEG [Q13P] | 2.03 |

| Variant | protein stability index |
| --- | --- |
| IPPYSRASLKGYKWLKDKILSEEG [Q13K] | 1.74 |
| IPPYSRASLKGYHWLKDKILSEEG [Q13H] | 2.46 |
| IPPYSRASLKGYTWLKDKILSEEG [Q13T] | 2.55 |
| IPPYSRASLKGYRWLKDKILSEEG [Q13R] | 2.49 |
| IPPYSRASLKGYQWGKDKILSEEG [L15G] | 3.2 |
| IPPYSRASLKGYQWRKDKILSEEG [L15R] | 2.37 |
| IPPYSRASLKGYQWAKDKILSEEG [L15A] | 3.71 |
| IPPYSRASLKGYQWTKDKILSEEG [L15T] | 3.08 |
| IPPYSRASLKGYQWYKDKILSEEG [L15Y] | 2.19 |
| IPPYSRASLKGYQWVKDKILSEEG [L15V] | 2.91 |
| IPPYSRASLKGYQWNKDKILSEEG [L15N] | 3.64 |
| IPPYSRASLKGYQWEKDKILSEEG [L15E] | 3.19 |
| IPPYSRASLKGYQWPKDKILSEEG [L15P] | 3.61 |
| IPPYSRASLKGYQWFKDKILSEEG [L15F] | 2.59 |
| IPPYSRASLKGYQWSKDKILSEEG [L15S] | 3.53 |
| IPPYSRASLKGYQWMKDKILSEEG [L15M] | 2.47 |
| IPPYSRASLKGYQWCKDKILSEEG [L15C] | 3.47 |
| IPPYSRASLKGYQWIKDKILSEEG [L15I] | 2.11 |
| IPPYSRASLKGYQWHKDKILSEEG [L15H] | 3.73 |
| IPPYSRASLKGYQWDKDKILSEEG [L15D] | 4.13 |
| IPPYSRASLKGYQWKKDKILSEEG [L15K] | 3.22 |
| IPPYSRASLKGYQWQKDKILSEEG [L15Q] | 3.52 |
| IPPYSRASLKGYQWWKDKILSEEG [L15W] | 2.18 |
| IPPYSRASLKYYQWLKDKILSEEG [G11Y] | 2.91 |

| Variant | protein stability index |
| --- | --- |
| IPPYSRASLKGYQWLKFKILSEEG [D17F] | 2.25 |
| IPPYSRASLKGYQWLKCKILSEEG [D17C] | 1.3 |
| IPPYSRASLKGYQWLKAKILSEEG [D17A] | 2.65 |
| IPPYSRASLKGYQWLKEKILSEEG [D17E] | 1.26 |
| IPPYSRASLKGNQWLKDKILSEEG [Y12N] | 3.13 |
| IPPYSRASLKGQQWLKDKILSEEG [Y12Q] | 3.18 |
| IPPYSRASLKGGQWLKDKILSEEG [Y12G] | 3.5 |
| IPPYSRASLKGAQWLKDKILSEEG [Y12A] | 3.34 |
| IPPYSRASLKGKQWLKDKILSEEG [Y12K] | 4.35 |
| IPPYSRASLKGPQWLKDKILSEEG [Y12P] | 3.17 |
| IPPYSRASLKGVQWLKDKILSEEG [Y12V] | 2.71 |
| IPPYSRASLKGTQWLKDKILSEEG [Y12T] | 3.81 |
| IPPYSRASLKGDQWLKDKILSEEG [Y12D] | 3.97 |
| IPPYSRASLKGRQWLKDKILSEEG [Y12R] | 3.44 |
| IPPYSRASLKGIQWLKDKILSEEG [Y12I] | 2.45 |
| IPPYSRASLKGWQWLKDKILSEEG [Y12W] | 1.32 |
| IPPYSRASLKGEQWLKDKILSEEG [Y12E] | 3.87 |
| IPPYSRASLKGLQWLKDKILSEEG [Y12L] | 2.51 |
| IPPYSRASLKGCQWLKDKILSEEG [Y12C] | 3.04 |
| IPPYSRASLKGHQWLKDKILSEEG [Y12H] | 3.62 |
| IPPYSRASLKGFQWLKDKILSEEG [Y12F] | 2.84 |
| IPPYSRASLKGSQWLKDKILSEEG [Y12S] | 4.02 |
